Data reported in paper PMC10051649, “Suramin Disturbs the Association of the N-Terminal Domain of SARS-CoV-2 Nucleocapsid Protein with RNA”.

Target: SARS-CoV-2 nucleocapsid N-terminal domain (N-NTD) (SARS-CoV-2, UniProt P0DTC9 44-180)
Experiment: BLI
Settings: protein: recombinant; tags: 6xHis-SUMO removed by SUMO protease; biotinylated for BLI; 15N-labeled for NMR; single strand

Binder: AUAUGGAAGAGCCCUA (ssRNA) [ssRNA-16]
- Kd: 8.37 µM
